Reference: article PMC6522503

Experiments:
CDK4 = CDK4 (UniProt P11802); assay: anti-HA co-IP, anti-FLAG blot; settings: reference: wild type p21; sites T55
CDK2 = CDK2 (UniProt P24941); assay: anti-HA co-IP, anti-FLAG blot; settings: reference: wild type p21; sites T55

For p21 (from UniProt P38936) T55A p21, the “binding against the reference” value (CDK4) was “weaker” and the “binding against the reference” value (CDK2) was “weaker”.
